From patent publication WO2005095988A2

Legend:
[1] = target: Bacillus anthracis protective antigen (PA) (Bacillus anthracis) (UniProt P13423)
[2] = target: Bacillus anthracis protective antigen (PA) (Bacillus anthracis) (UniProt P13423); remark: listed apart in the source

Sequence of UniProt P13423 (P13423 30-764 limits assumed): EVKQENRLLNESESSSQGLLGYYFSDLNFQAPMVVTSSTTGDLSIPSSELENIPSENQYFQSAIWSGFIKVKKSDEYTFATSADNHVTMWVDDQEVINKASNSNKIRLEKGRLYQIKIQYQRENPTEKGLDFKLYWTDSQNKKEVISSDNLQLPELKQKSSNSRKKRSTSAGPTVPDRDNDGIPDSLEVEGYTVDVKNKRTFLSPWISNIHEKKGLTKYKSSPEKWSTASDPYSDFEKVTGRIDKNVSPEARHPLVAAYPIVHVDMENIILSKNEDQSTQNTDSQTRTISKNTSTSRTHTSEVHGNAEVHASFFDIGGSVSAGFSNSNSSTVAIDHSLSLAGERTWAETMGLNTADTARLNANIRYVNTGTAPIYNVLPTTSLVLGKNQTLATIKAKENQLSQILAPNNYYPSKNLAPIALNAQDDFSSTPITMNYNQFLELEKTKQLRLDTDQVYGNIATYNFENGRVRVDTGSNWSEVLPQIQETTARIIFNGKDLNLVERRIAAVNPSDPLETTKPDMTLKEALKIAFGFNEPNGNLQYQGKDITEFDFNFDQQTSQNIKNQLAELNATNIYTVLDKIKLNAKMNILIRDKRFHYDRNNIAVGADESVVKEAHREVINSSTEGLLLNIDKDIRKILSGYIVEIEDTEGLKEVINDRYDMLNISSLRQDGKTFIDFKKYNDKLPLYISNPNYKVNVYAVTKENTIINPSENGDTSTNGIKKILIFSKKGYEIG

Substance	fold higher mean fluorescence intensity compared to controls [1]	mean fluorescence [2]
NlpA-[14B7 scFv], anchored on the E. coli inner membrane (APEx)	9 fold	30
NlpA-[M18 scFv], anchored on the E. coli inner membrane (APEx)	–	250
